These results are taken from PMC2682205, “Cdc7p-Dbf4p Regulates Mitotic Exit by Inhibiting Polo Kinase” (PLoS Genetics, 2009).

The assay has as its target T1, GST-PoloPBD (Polo amino acids 357–705) (budding yeast (S. cerevisiae), UniProt P32562 357-705).
T1 construct: Cdc5p (Polo), budding yeast; amino acids 357-705 with the polo-box domain; Cloned into pGEX-KG; also called GST-PBD; source: E. coli BL21, purified (glutathione-agarose, dialysis)
T1 sequence (looked up): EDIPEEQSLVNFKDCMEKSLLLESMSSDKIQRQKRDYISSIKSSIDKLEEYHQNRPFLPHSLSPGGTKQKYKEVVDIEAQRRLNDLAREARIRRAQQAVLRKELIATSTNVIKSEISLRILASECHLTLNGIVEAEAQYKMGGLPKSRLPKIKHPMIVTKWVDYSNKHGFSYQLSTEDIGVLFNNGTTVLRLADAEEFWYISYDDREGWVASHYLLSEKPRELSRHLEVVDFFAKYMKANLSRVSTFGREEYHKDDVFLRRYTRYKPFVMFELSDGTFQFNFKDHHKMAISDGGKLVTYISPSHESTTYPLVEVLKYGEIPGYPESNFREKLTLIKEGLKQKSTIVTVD
The experiment in a line: pull-down; GST or GST-PBD with Sumo or Sumo-Dbf4p on glutathione-agarose, 20 mM Tris-HCl pH 7.0, 300 mM NaCl, 0.5% NP-40, 1 mM EGTA, 1 hour at 4°C; blots with anti-GST-Polo PBD and anti-Smt3p. The conditions noted are these: both partners purified.

B1: Sumo-Dbf4p_(67–109) (domain or fragment, budding yeast (S. cerevisiae), UniProt P32325 66-109, looked up)
chain: QQQQHLHEKKRARIERARSIEGAVQVSKGTGLKNVEPRVTPKEL
notes: Dbf4p, budding yeast; Cloned into pSUMO (LifeSensors Inc.); also called Dbf4p PIR; source: E. coli BL21, purified (Ni++ column, imidazole gradient)
Take B1: the binding result is given as “binds”.
